In US20180371066A1:

T1: PEP_2875802
T1 sequence (peptide): HAGTYGLGDRKDQGG

T2: PEP_2875800
T2 sequence (peptide): DHAGTYGLGDRKDQG

T3: PEP_2875828
T3 sequence (peptide): GGYTMHQDQEGDTDA

T4: PEP_2875830
T4 sequence (peptide): GYTMHQDQEGDTDAG

T5: PEP_2875807
T5 sequence (peptide): GTYGLGDRKAAGGYT

T6: PEP_2875801
T6 sequence (peptide): DHAGTYGLGAAKDQG

T7: PEP_2875829
T7 sequence (peptide): GGYTMHQDQAADTDA

T8: PEP_2875803
T8 sequence (peptide): HAGTYGLGDAADQGG

T9: PEP_2875815
T9 sequence (peptide): LGDRKDQGGAAMHQD

T10: PEP_2875813
T10 sequence (peptide): GLGDRKDQGAATMHQ

T11: PEP_2875805
T11 sequence (peptide): AGTYGLGDRAAQGGY


Experiments:
PEP_2875802 = target: T1, PEP_2875802; test: peptide array of 15-mers of human tau probed with the antibody; label LIN
PEP_2875800 = target: T2, PEP_2875800; test: as above
PEP_2875828 = target: T3, PEP_2875828; test: as above
PEP_2875830 = target: T4, PEP_2875830; test: as above
PEP_2875807 = target: T5, PEP_2875807; test: peptide array of 15-mers of human tau probed with the antibody; label LIN.AA (double alanine)
PEP_2875801 = target: T6, PEP_2875801; test: as above
PEP_2875829 = target: T7, PEP_2875829; test: as above
PEP_2875803 = target: T8, PEP_2875803; test: as above
PEP_2875815 = target: T9, PEP_2875815; test: as above
PEP_2875813 = target: T10, PEP_2875813; test: as above
PEP_2875805 = target: T11, PEP_2875805; test: as above

| Binding Signal (PEP_2875802) | Binding Signal (PEP_2875800) | Binding Signal (PEP_2875828) | Binding Signal (PEP_2875830) | Binding Signal (PEP_2875807) | Binding Signal (PEP_2875801) | Binding Signal (PEP_2875829) | Binding Signal (PEP_2875803) | Binding Signal (PEP_2875815) | Binding Signal (PEP_2875813) | Binding Signal (PEP_2875805) | Binder |
| --- | --- | --- | --- | --- | --- | --- | --- | --- | --- | --- | --- |
| 63 | 61 | 109 | 77 | 110 | 52 | 106 | 51 | 69 | 80 | 58 | murine anti-tau antibody HJ8.5 (antibody, V domains shown) VH: EVKVEESGGGLVQPGGSMKLSCVVSGFTFSNYWVNWVRQSPEKGLEWVAQIRLKSDNYATHYEESVKGRFTISRDDSKSSVYLQMNNLRAEDSGIYYCTNWEDYWGQGTTLTVSS VL: DIVLTQSPASLAVSLGQRATISCRASQSVSTSRYSYIHWYQQKPGQPPKLLIKYASNLESGVPARFSGSGSGTDFTLNIHPLEEEDAATYYCHHSWEIPLTFGAGTKLELK |
| 65 | 78 | 110 | 97 | 114 | 90 | 118 | 65 | 99 | 65 | 76 | VH1/VK2 humanized anti-tau antibody (C2N-8E12) (antibody, human IgG4 S228P, kappa, V domains shown) VH: EVKVVESGGGLVQPGGSMKLSCVVSGFTFSNYWVNWVRQAPGKGLEWVAQIRLKSDNYATHYEESVKGRFTISRDDSKSSVYLQMNNLRAEDSGIYYCTNWEDYWGQGTTVTVSS VL: DIVLTQSPDSLAVSLGERATISCRASQSVSTSRYSYIHWYQQKPGQPPKLLIKYASNLESGVPSRFSGSGSGTDFTLNIHPLEPEDFATYYCHHSWEIPLTFGQGTKLEIKR |
